Where a SMILES comes first, the peptide text is derived from it.
target: Angiotensin-I converting enzyme (UniProt P12821); experiment: not given; settings: not given
Sequence (P12821 30-1256): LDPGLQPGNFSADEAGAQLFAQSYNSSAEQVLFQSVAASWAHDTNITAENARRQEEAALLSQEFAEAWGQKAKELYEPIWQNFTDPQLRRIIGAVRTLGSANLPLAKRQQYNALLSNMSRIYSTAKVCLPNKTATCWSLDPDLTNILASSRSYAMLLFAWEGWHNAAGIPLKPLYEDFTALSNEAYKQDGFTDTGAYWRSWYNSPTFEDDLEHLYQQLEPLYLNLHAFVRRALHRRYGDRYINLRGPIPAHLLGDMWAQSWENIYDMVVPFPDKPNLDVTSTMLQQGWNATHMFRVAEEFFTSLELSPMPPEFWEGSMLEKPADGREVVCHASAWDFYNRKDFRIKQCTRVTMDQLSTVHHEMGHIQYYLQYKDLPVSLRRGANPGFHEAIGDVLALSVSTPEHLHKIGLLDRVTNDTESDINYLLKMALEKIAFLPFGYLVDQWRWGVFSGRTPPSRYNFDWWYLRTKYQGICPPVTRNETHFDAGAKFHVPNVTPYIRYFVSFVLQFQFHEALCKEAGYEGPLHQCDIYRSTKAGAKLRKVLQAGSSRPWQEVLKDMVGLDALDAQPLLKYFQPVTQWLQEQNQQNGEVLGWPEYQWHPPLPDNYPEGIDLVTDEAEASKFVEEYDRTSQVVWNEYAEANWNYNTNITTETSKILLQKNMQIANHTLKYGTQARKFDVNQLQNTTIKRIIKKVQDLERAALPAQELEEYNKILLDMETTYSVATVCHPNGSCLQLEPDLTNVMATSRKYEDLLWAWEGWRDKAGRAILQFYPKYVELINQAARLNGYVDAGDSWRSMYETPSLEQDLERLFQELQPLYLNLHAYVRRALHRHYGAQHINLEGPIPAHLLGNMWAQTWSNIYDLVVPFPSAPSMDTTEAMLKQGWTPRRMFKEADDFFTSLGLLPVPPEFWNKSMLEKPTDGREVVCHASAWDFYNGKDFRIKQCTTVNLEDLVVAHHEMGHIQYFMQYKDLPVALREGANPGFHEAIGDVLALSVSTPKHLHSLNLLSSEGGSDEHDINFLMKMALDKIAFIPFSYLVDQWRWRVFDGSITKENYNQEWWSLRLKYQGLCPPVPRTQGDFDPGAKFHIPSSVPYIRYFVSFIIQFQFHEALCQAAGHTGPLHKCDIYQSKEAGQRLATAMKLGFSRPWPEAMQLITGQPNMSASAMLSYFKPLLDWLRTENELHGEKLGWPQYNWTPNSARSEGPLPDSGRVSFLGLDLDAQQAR

| ACE inhibitory activity IC50 (ACE kit-WST, colorimetric enzyme activity assay) [µg/mL] | Molecule |
| --- | --- |
| 104 | VAR (peptide) |
| 23 | QFPVGR |
| 23 | VTPGLQY |
| 4 | QLQFPVGR |

Continued, molecule first:

| Molecule | ACE inhibitory activity IC50 (ACE kit-WST, colorimetric enzyme activity assay) [µg/mL] |
| --- | --- |
| LDW (peptide) | > 1000 |
| NYER | 107 |
| LGEW | 165 |
| NLGEW | 146 |
| LGPY | > 1000 |

target: T1, Angiotensin-I converting enzyme (ACE) (Homo sapiens, UniProt P12821); experiment: ACE inhibition activity assay (ACE kit-WST, colorimetric); assay type: biochemical; settings: 3-hydroxybutyryl-Gly-Gly-Gly substrate, mean ± SD of triplicate, read-out: ACE Inhibitory Activity IC50 Value (converted)
T1 construct: purchased Dojindo Inc., Kumamoto, Japan ACE kit-WST
T1 sequence (P12821 30-1306, species assumed): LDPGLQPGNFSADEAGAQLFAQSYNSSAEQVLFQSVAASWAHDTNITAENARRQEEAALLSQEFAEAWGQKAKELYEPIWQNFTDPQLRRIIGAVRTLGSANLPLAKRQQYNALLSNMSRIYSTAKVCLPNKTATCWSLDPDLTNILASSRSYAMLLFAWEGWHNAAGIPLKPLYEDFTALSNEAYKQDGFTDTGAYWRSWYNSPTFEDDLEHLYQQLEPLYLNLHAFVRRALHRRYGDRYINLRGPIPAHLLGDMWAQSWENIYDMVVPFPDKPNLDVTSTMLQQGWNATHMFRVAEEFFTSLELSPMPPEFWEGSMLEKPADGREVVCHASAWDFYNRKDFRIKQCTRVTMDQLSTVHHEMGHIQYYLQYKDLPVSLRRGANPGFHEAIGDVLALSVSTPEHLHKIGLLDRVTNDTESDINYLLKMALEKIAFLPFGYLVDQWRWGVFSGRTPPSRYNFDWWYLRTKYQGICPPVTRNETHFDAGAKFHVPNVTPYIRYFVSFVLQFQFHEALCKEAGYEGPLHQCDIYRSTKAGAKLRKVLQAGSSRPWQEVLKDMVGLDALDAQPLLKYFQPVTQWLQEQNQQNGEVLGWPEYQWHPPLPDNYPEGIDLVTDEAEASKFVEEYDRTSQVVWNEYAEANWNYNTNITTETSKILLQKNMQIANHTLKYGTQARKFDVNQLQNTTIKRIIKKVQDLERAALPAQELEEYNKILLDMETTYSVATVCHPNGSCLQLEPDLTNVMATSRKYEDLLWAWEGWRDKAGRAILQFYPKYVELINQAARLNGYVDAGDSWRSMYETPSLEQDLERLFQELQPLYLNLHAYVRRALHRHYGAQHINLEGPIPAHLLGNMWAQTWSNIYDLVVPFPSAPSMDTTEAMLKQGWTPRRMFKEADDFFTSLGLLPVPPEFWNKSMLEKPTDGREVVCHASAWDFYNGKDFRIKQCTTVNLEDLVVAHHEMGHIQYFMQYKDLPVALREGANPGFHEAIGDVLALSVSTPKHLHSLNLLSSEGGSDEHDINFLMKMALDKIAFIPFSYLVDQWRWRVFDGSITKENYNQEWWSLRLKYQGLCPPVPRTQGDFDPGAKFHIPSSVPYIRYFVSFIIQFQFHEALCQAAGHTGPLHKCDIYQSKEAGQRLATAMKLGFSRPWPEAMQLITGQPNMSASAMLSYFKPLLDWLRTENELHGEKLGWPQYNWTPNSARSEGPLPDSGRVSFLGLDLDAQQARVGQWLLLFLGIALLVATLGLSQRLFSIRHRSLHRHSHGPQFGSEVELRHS
Description: ACE inhibitory activity was determined as previously described. Inhibition was measured using an ACE kit-WST (Dojindo Inc., Kumamoto, Japan), a colorimetric method. Briefly, the inhibitory effect was determined using enzyme activity and the amount of 3-hydroxybutyric acid made from 3-hydroxybutyryl-Gly-Gly-Gly.

| IC50 [µM] | Molecule |
| --- | --- |
| 4.24 | CC(C)C[C@H](NC(=O)[C@@H](N)CCC(N)=O)C(=O)N[C@@H](CCC(N)=O)C(=O)N[C@@H](Cc1ccccc1)C(=O)N1CCC[C@H]1C(=O)N[C@H](C(=O)NCC(=O)N[C@@H](CCCNC(=N)N)C(=O)O)C(C)C [QLQFPVGR] (H-QLQFPVGR-OH) |
| 302 | CC(C)[C@H](N)C(=O)N[C@@H](C)C(=O)N[C@@H](CCCNC(=N)N)C(=O)O [VAR] (H-Val-Ala-Arg-OH) |
| 29.6 | CC(C)C[C@H](NC(=O)CNC(=O)[C@@H]1CCCN1C(=O)[C@@H](NC(=O)[C@@H](N)C(C)C)[C@@H](C)O)C(=O)N[C@@H](CCC(N)=O)C(=O)N[C@@H](Cc1ccc(O)cc1)C(=O)O [VTPGLQY] (H-VTPGLQY-OH) |

The remaining lines, values behind:

| Molecule | IC50 [µM] |
| --- | --- |
| CC(C)C[C@H](NC(=O)[C@@H](N)CC(N)=O)C(=O)NCC(=O)N[C@@H](CCC(=O)O)C(=O)N[C@@H](Cc1c[nH]c2ccccc12)C(=O)O [NLGEW] (H-NLGEW-OH) | 236 |
| CC(C)C[C@H](N)C(=O)NCC(=O)N1CCC[C@H]1C(=O)N[C@@H](Cc1ccc(O)cc1)C(=O)O [LGPY] (H-LGPY-OH) | > 2230 |
| CC(C)C[C@H](N)C(=O)NCC(=O)N[C@@H](CCC(=O)O)C(=O)N[C@@H](Cc1c[nH]c2ccccc12)C(=O)O [LGEW] (H-LGEW-OH) | 328 |
| CC(C)C[C@H](N)C(=O)N[C@@H](CC(=O)O)C(=O)N[C@@H](Cc1c[nH]c2ccccc12)C(=O)O [LDW] (H-Leu-Asp-Trp-OH) | > 2310 |
| N=C(N)NCCC[C@H](NC(=O)[C@H](CCC(=O)O)NC(=O)[C@H](Cc1ccc(O)cc1)NC(=O)[C@@H](N)CC(N)=O)C(=O)O [NYER] (H-NYER-OH) | 184 |
